According to patent EP4644426A1 (Gan & Lee Pharmaceuticals Co., Ltd., dated 2025):

Assays:
human FXIa factor [1] = target: T1, human FXIa factor (human, UniProt P03951 19-625); experiment: cell-based or functional assay
human FXIa factor [2] = target: T1, human FXIa factor; experiment: cell-based or functional assay; remark: listed apart in the source

| Binder | IC50 (nM) from S2366 Assay (human FXIa factor [1]) [nM] | FXIa kit Activity Assay (nM), IC50 (human FXIa factor [2]) [nM] |
| --- | --- | --- |
| humanized antibody 14F3-Z1 (antibody, human IgG1, kappa, V domains shown) VH: QVQLVQSGAEVKKPGASVKVSCKASGYAFSNYLIEWVGQAPGQGLEWMGVINPGSGYTNYNENFKDRVTMTAHTSISTAYMELSRLRSDDTAVYFCARTYGKYGGAMDFWGQGTLVTVSS VL: DIQMTQSPSSLSASVGDRVTITCKASQSVSNDVAWYQQKPGKAPKLLIYYISNRYTGVPSRFSGSGSGTDFTFTISSLQPEDIATYFCQQDYSSPPTFGQGTKLEIKR | 54.1 | 8.53 |
| humanized antibody 14F3-3 (antibody, human IgG1, kappa, V domains shown) VH: QVQLVQSGAEVKKPGASVKVSCKASGYTFTNYLIEWVRQAPGQGLEWIGVINPGSGYTNYNENFKDRATLTADTSISTAYMELSRLRSDDTAVYFCARTYGKYGGAMDFWGQGTTVTVSS VL: DIVMTQSPDSLAVSLGERATINCKASQSVSNDVAWYQQKPGQPPKLLIYYISNRYTGVPDRFSGSGSGTDFTLTISSLQAEDVAVYYCQQDYSSPPTFGGGTKLEIKR | 52.7 | 10.7 |
| humanized antibody 14F3-2 (antibody, human IgG1, kappa, V domains shown) VH: QVQLVQSGAEVKKPGASVKVSCKASGYTFTNYLIEWVRQAPGQGLEWMGVINPGSGYTNYNENFKDRVTMTRDTSISTAYMELSRLRSDDTAVYYCARTYGKYGGAMDFWGQGTTVTVSS VL: DIVMTQSPDSLAVSLGERATINCKASQSVSNDVAWYQQKPGQPPKLLIYYISNRYTGVPDRFSGSGSGTDFTLTISSLQAEDVAVYFCQQDYSSPPTFGGGTKLEIKR | 43 | 9.69 |
| humanized antibody 14F3-4 (antibody, human IgG1, kappa, V domains shown) VH: QVQLVQSGAEVKKPGASVKVSCKASGYTFTNYLIEWVRQAPGQGLEWIGVINPGSGYTNYNENFKDRATLTADTSISTAYMELSRLRSDDTAVYFCARTYGKYGGAMDFWGQGTTVTVSS VL: DIVMTQSPDSLAVSLGERATINCKASQSVSNDVAWYQQKPGQPPKLLIYYISNRYTGVPDRFSGSGSGTDFTLTISSLQAEDVAVYFCQQDYSSPPTFGGGTKLEIKR | 64.7 | 15.7 |

Continued, values first:

| IC50 (nM) from S2366 Assay (human FXIa factor [1]) [nM] | FXIa kit Activity Assay (nM), IC50 (human FXIa factor [2]) [nM] | Binder |
| --- | --- | --- |
| 57.3 | 8.79 | humanized antibody 14F3-Z2 (antibody, human IgG1, kappa, V domains shown) VH: QVQLVQSGAEVKKPGASVKVSCKASGYAFSNYLIEWVGQAPGQGLEWMGVINPGSGYTNYNENFKDRVTMTRHTSISTAYMELSRLRSDDTAVYFCARTYGKYGGAMDFWGQGTLVTVSS VL: DIQMTQSPSSLSASVGDRVTITCKASQSVSNDVAWYQQKPGKAPKLLIYYISNRYTGVPSRFSGSGSGTDFTFTISSLQPEDIATYYCQQDYSSPPTFGQGTKLEIKR |
| 56.3 | 13.5 | humanized antibody 14F3-Z3 (antibody, human IgG1, kappa, V domains shown) VH: QVQLVQSGAEVKKPGSSVKVSCKASGYAFSNYLIEWVRQAPGQGLEWMGVINPGSGYTNYNENFKDRVTITADESTSTAYMELSSLRSEDTAVYYCARTYGKYGGAMDFWGQGTTVTVSS VL: DIQMTQSPSFLSASVGDRVTITCKASQSVSNDVAWYQQKPGKAPKLLIYYISNRYTGVPSRFSGSGSGTDFTLTISSLQPEDFATYYCQQDYSSPPTFGQGTKLEIKR |
| 55.8 | 13.6 | humanized antibody 14F3-Z4 (antibody, human IgG1, kappa, V domains shown) VH: QVQLVQSGAEVKKPGSSVKVSCKASGYAFSNYLIEWVRQAPGQGLEWMGVINPGSGYTNYNENFKDRVTITADESTSTAYMELSSLRSEDTAVYFCARTYGKYGGAMDFWGQGTTVTVSS VL: DIQMTQSPSFLSASVGDRVTITCKASQSVSNDVAWYQQKPGKAPKLLIYYISNRYTGVPSRFSGSGSGTDFTLTISSLQPEDFATYFCQQDYSSPPTFGQGTKLEIKR |
